Measurements as given in patent publication US20140227270A1.

Target: Human CXCR7 (human) (UniProt P25106)
Assay: competition FACS, 4 nM biotinylated SDF-1 on HEK-hCXCR7 cells

Human CXCR7 (human), sequence (P25106 whole entry): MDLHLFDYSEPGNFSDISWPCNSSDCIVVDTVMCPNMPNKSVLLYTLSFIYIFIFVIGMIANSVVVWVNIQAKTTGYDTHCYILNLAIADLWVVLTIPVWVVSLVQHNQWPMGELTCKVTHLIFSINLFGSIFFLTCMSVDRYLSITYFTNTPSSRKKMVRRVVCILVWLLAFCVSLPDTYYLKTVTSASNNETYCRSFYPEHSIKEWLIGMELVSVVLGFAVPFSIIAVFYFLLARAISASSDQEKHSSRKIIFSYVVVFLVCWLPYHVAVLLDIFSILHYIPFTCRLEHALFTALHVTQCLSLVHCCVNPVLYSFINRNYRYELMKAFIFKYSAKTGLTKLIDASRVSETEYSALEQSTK

% competition relative to unlabelled SDF-1: > 95%
Substance: Mab 8F11 (Biolegend) (antibody)
